The source of these data is patent EP2975059A1 (Kymab Limited, dated 2016).

Holding throughout (assay): SPR ProteOn XPR36, antibody captured on anti-human IgG, PCSK9 variant as analyte, 25 C, 1:1 model
The target of assay [1] is T1, Human PCSK9 form c (human, UniProt Q8NBP7 31-692).
T1 construct: also called PCSK9 c

Assay [2] deals with T2, Human PCSK9 form p (human, UniProt Q8NBP7 31-692).
T2 construct: also called PCSK9 p

Assay [3] concerns the target T3, Human PCSK9 form r (human, UniProt Q8NBP7 31-692).
T3 construct: also called PCSK9 r

In assay [4] the target is T4, Human PCSK9 form a (human, UniProt Q8NBP7 31-692).
T4 construct: also called PCSK9 a

Assay [5] concerns the target Human PCSK9 form f (human, UniProt Q8NBP7 31-692).

B1: Antibody 316P (antibody, V domains shown)
VH: EVQLVESGGGLVQPGGSLRLSCAASGFTFNNYAMNWVRQAPGKGLDWVSTISGSGGTTNYADSVKGRFIISRDSSKHTLYLQMNSLRAEDTAVYYCAKDSNWGNFDLWGRGTLVTVSS
VL: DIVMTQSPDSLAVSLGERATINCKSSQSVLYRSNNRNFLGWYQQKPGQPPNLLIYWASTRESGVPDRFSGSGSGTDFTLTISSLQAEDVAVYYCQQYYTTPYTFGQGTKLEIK
For B1, the Kd came to 184 pM in assay [1]; 196 pM in assay [2]; 197 pM in assay [3]; 201 pM in assay [4]; 203 pM in assay [5]. Also, the koff came to 0.000275 s⁻¹ in assay [1]; 0.000273 s⁻¹ in assay [2]; 0.000276 s⁻¹ in assay [3]; 0.000275 s⁻¹ in assay [4]; 0.000282 s⁻¹ in assay [5]. In addition, the kon in assay [1] came to 1.49e+06 M⁻¹ s⁻¹; in assay [2] it was 1.39e+06 M⁻¹ s⁻¹; in assay [3] it was 1.4e+06 M⁻¹ s⁻¹; in assay [4] it was 1.37e+06 M⁻¹ s⁻¹; in assay [5] it was 1.39e+06 M⁻¹ s⁻¹.

B2: Evolocumab (antibody, V domains shown)
VH: QVQLVQSGAEVKKPGASVKVSCKASGYTLTSYGISWVRQAPGQGLEWMGWVSFYNGNTNYAQKLQGRGTMTTDPSTSTAYMELRSLRSDDTAVYYCARGYGMDVWGQGTTVTVSS
VL: QSALTQPASVSGSPGQSITISCTGTSSDVGGYNSVSWYQQHPGKAPKLMIYEVSNRPSGVSNRFSGSKSGNTASLTISGLQAEDEADYYCNSYTSTSMVFGGGTKLTVL
Turning to B2, the Kd in assay [1] was determined as 183 pM; in assay [2], 219 pM; in assay [3], 230 pM; in assay [4], 229 pM; in assay [5], 229 pM. Moreover, the koff in assay [1] was 2.2e-05 s⁻¹; in assay [2] it was 2.5e-05 s⁻¹; in assay [3], 2.67e-05 s⁻¹; in assay [4], 2.62e-05 s⁻¹; in assay [5], 2.66e-05 s⁻¹. The kon turned out to be 120000 M⁻¹ s⁻¹ in assay [1]; 114000 M⁻¹ s⁻¹ in assay [2]; 116000 M⁻¹ s⁻¹ in assay [3]; 114000 M⁻¹ s⁻¹ in assay [4]; 116000 M⁻¹ s⁻¹ in assay [5].

The Kd is the concentration at which binding is half-saturated. Low values mean a tighter complex, high ones a looser complex. As usually defined, the koff is the rate constant with which the complex falls apart. Low values mean a long-lived complex, high ones a short-lived complex. For orientation: kon means a measure of how fast the partners come together. Low readings indicate slower complex formation, high ones faster complex formation.
